In patent US20230213527A1, “COMPOSITIONS AND METHODS FOR POLYPEPTIDE ANALYSIS” (Quantum-Si Incorporated, priority 2021, published 2023) one finds RS mean PD data, which are given here for one substance.

The target in test [1] is lysine peptide of Example 6 (printed as …, SEQ ID NO: 825), state with N-terminal AK. Kind of test: single-molecule on-chip sequencing with PS691, PS610, PS961 and PS1165.
Test [2] deals with acetyl-lysine peptide of Example 6 (printed as RLK{acetyl}FIAYPDDD, SEQ ID NO: 826), state with N-terminal AK{acetyl}. The test is described as above.

PS1165, sequence (Q13490 other isoform, or with tags, fused parts or gaps): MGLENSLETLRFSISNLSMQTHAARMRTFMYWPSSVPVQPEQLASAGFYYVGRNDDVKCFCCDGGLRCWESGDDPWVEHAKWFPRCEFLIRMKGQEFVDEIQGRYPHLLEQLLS

PS1165 (from UniProt Q13490 250-361): the figures for the RS mean PD in test [1] and in test [2] were 1.3 s and 2.2 s, respectively.
